# Reference: paper PMC12552936, “Protein inhibitor of retinal membrane guanylyl cyclase suppresses cGMP synthesis in photoreceptors” (The Journal of Biological Chemistry, 2025)
# Numbering of substitutions follows the chain as printed. Names and notes keep the numbering of the source.
# T1: mOrange-tagged RetGC1 (retinal membrane guanylyl cyclase 1) (human, UniProt Q02846 52-1103)
# T1 sequence (looked up): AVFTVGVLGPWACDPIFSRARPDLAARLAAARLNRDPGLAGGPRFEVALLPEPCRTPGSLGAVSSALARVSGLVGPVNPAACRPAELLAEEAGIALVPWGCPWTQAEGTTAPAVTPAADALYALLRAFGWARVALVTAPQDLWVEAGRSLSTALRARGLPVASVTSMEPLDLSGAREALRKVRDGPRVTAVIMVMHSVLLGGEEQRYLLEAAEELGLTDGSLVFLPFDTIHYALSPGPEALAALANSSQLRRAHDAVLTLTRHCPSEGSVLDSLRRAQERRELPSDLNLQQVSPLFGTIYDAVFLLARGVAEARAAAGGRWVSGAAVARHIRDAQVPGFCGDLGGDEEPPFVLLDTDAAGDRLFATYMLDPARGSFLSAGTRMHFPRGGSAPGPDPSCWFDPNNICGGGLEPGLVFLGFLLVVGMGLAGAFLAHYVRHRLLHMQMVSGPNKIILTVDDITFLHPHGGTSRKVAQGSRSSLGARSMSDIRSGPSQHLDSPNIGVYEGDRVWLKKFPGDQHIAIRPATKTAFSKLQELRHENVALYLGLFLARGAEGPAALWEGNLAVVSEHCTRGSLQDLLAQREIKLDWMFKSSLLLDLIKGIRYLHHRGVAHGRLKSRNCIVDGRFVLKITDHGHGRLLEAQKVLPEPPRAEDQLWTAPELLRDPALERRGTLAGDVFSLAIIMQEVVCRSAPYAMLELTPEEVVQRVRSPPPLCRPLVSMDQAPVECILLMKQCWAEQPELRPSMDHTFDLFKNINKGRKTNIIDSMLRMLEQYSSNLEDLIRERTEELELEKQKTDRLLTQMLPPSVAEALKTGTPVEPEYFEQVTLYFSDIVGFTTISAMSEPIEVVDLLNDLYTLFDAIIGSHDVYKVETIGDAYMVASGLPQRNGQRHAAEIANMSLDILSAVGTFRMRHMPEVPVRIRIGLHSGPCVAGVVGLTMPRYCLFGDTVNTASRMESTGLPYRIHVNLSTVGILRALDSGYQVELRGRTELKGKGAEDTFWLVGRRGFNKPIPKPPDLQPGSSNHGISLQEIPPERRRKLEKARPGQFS
# B1: M26R GCAP1 (natural protein)
# chain: MGNIMDGKSVEELSSTECHQWYKKFRTECPSGQLTLYEFRQFFGLKNLSPWASQYVEQMFETFDFNKDGYIDFMEYVAALSLVLKGKVEQKLRWYFKLYDVDGNGCIDRDELLTIIRAIRAINPCSDSTMTAEEFTDTVFSKIDVNGDGELSLEEFMEGVQKDQMLLDTLTRSLDLTRIVRRLQNGEQDEEGASGRETEAAEADG
# modifications: N-terminal myristoyl
# B2: GCAP1-GFP (wildtype GCAP1 tagged with GFP) (natural protein, bovine, UniProt P46065 1-205, looked up)
# chain: B1 chain with R26M
# B3: PIGCY-GFP (protein inhibitor of retinal guanylyl cyclase, M26R/G86R/L176F GCAP1, tagged with GFP at the C-terminus) (designed binder)
# chain: B1 chain with G86R, L176F
# Tests used:
# [1] = target: mOrange-tagged RetGC1 (retinal membrane guanylyl cyclase 1) (human) (UniProt Q02846)
# [2] = target: T1, mOrange-tagged RetGC1 (retinal membrane …); assay: cell-based or functional assay
# [3] = target: native RetGC of the mouse retina (endogenous RetGC in retinal homogenates and isolated rod outer segments)
molecule,measurement,setting,value
M26R/L176F GCAP1 (from UniProt P46065 1-205) (natural protein),"inhibition of the activity of recombinant RetGC1 in HEK293 membranes reconstituted with 1 μM GCAP1 (blocked pair: RetGC1:GCAP1), 2 mM EGTA, 10 mM MgCl2; IC50",[1],300 nM
B1,"inhibition of the activity of recombinant RetGC1 in HEK293 membranes reconstituted with 1 μM GCAP1 (blocked pair: RetGC1:GCAP1), 2 mM EGTA, 10 mM MgCl2; IC50",[1],640 nM
B2,"activation of recombinant human RetGC1 by Mg2+GCAP1 in the absence of Ca2+, dose dependence (Fig. 3A inset); EC50",[2],~1500 nM
B3,"inhibition by PIGCY of RetGC1 preactivated by 1 μM bovine recombinant GCAP1 (blocked pair: RetGC1:bovine GCAP1), 2 mM EGTA, 10 mM MgCl2; IC50",[2],51 nM
same,"inhibition by PIGCY of RetGC1 preactivated by 1 μM human recombinant GCAP1 (blocked pair: RetGC1:human GCAP1), 2 mM EGTA, 10 mM MgCl2; IC50",[2],75 nM
same,"inhibition by PIGCY of RetGC1 preactivated by 1 μM mouse recombinant GCAP1 (blocked pair: RetGC1:mouse GCAP1), 2 mM EGTA, 10 mM MgCl2; IC50",[2],91 nM
same,"inhibition of the activity of recombinant RetGC1 in HEK293 membranes reconstituted with 1 μM GCAP1 (blocked pair: RetGC1:GCAP1), 2 mM EGTA, 10 mM MgCl2; IC50",[2],52 nM
same,reduction of Vmax of recombinant human RetGC1 in HEK293 membranes reconstituted with 2 μM wildtype GCAP1 by 0.35 μM PIGCY (blocked pair: RetGC1:GCAP1),[2],> 3 fold
same,total RetGC activity in the rod outer segment fraction isolated from wildtype mouse retinas with 3 μM PIGCY (32 without PIGCY) (nmol cGMP/min/mg rhodopsin),[3],11
